{"source": "IntAct's records for PubMed 35512704", "parents": {"B1": {"name": "Mothers against decapentaplegic homolog 4 (Homo sapiens), Q13485 (parent)", "chain": "MDNMSITNTPTSNDACLSIVHSLMCHRQGGESETFAKRAIESLVKKLKEKKDELDSLITAITTNGAHPSKCVTIQRTLDGRLQVAGRKGFPHVIYARLWRWPDLHKNELKHVKYCQYAFDLKCDSVCVNPYHYERVVSPGIDLSGLTLQSNAPSSMMVKDEYVHDFEGQPSLSTEGHSIQTIQHPPSNRASTETYSTPALLAPSESNATSTANFPNIPVASTSQPASILGGSHSEGLLQIASGPQPGQQQNGFTGQPATYHHNSTTTWTGSRTAPYTPNLPHHQNGHLQHHPPMPPHPGHYWPVHNELAFQPPISNHPAPEYWCSIAYFEMDVQVGETFKVPSSCPIVTVDGYVDPSGGDRFCLGQLSNVHRTEAIERARLHIGKGVQLECKGEGDVWVRCLSDHAVFVQSYYLDREAGRAPGDAVHKIYPSAYIKVFDLRQCHRQMQQQAATAQAAAAAQAAAVAGNIPGPGSVGGIAPAISLSAAAGIGVDDLRRLCILRMSFVKGWGPDYPRQSIKETPCWIEIHLHRALQLLDEVLHTMPIADPQPLD"}}, "data": [{"variants_of": "B1", "conditions": "with smad3_human SMAD3, P84022", "values": [{"variant": "R361C", "effect of a mutation on the interaction": "disrupting interaction strength"}]}, {"variants_of": "B1", "conditions": "with agap2_human AGAP2, Q99490", "values": [{"variant": "R361C", "effect of a mutation on the interaction": "with no effect"}]}, {"variants_of": "B1", "conditions": "with ajuba_human AJUBA", "values": [{"variant": "R361C", "effect of a mutation on the interaction": "with no effect"}]}, {"variants_of": "B1", "conditions": "with akt1_human AKT1, P31749", "values": [{"variant": "R361C", "effect of a mutation on the interaction": "with no effect"}]}, {"variants_of": "B1", "conditions": "with akts1_human AKT1S1, Q96B36", "values": [{"variant": "R361C", "effect of a mutation on the interaction": "with no effect"}]}, {"variants_of": "B1", "conditions": "with akt3_human AKT3, Q9Y243", "values": [{"variant": "R361C", "effect of a mutation on the interaction": "with no effect"}]}, {"variants_of": "B1", "conditions": "with alk_human ALK", "values": [{"variant": "R361C", "effect of a mutation on the interaction": "with no effect"}]}, {"variants_of": "B1", "conditions": "with aph1a_human APH1A", "values": [{"variant": "R361C", "effect of a mutation on the interaction": "with no effect"}]}, {"variants_of": "B1", "conditions": "with arc1a_human ARPC1A", "values": [{"variant": "R361C", "effect of a mutation on the interaction": "with no effect"}]}, {"variants_of": "B1", "conditions": "with asxl1_human ASXL1, Q8IXJ9", "values": [{"variant": "R361C", "effect of a mutation on the interaction": "with no effect"}]}, {"variants_of": "B1", "conditions": "with bakor_human ATG14, Q6ZNE5", "values": [{"variant": "R361C", "effect of a mutation on the interaction": "with no effect"}]}, {"variants_of": "B1", "conditions": "with atpb_human ATP5F1B", "values": [{"variant": "R361C", "effect of a mutation on the interaction": "with no effect"}]}, {"variants_of": "B1", "conditions": "with atrx_human ATRX", "values": [{"variant": "R361C", "effect of a mutation on the interaction": "with no effect"}]}, {"variants_of": "B1", "conditions": "with aurkb_human AURKB", "values": [{"variant": "R361C", "effect of a mutation on the interaction": "with no effect"}]}, {"variants_of": "B1", "conditions": "with ufo_human AXL", "values": [{"variant": "R361C", "effect of a mutation on the interaction": "with no effect"}]}, {"variants_of": "B1", "conditions": "with za2g_human AZGP1, P25311", "values": [{"variant": "R361C", "effect of a mutation on the interaction": "with no effect"}]}, {"variants_of": "B1", "conditions": "with b2mg_human B2M", "values": [{"variant": "R361C", "effect of a mutation on the interaction": "with no effect"}]}, {"variants_of": "B1", "conditions": "with bap1_human BAP1, Q92560", "values": [{"variant": "R361C", "effect of a mutation on the interaction": "with no effect"}]}, {"variants_of": "B1", "conditions": "with becn1_human BECN1, Q14457", "values": [{"variant": "R361C", "effect of a mutation on the interaction": "with no effect"}]}, {"variants_of": "B1", "conditions": "with birc2_human BIRC2, Q13490", "values": [{"variant": "R361C", "effect of a mutation on the interaction": "with no effect"}]}, {"variants_of": "B1", "conditions": "with braf_human BRAF", "values": [{"variant": "R361C", "effect of a mutation on the interaction": "with no effect"}]}, {"variants_of": "B1", "conditions": "with cbl_human CBL", "values": [{"variant": "R361C", "effect of a mutation on the interaction": "with no effect"}]}, {"variants_of": "B1", "conditions": "with cblb_human CBLB", "values": [{"variant": "R361C", "effect of a mutation on the interaction": "with no effect"}]}, {"variants_of": "B1", "conditions": "with ccnd1_human CCND1, P24385", "values": [{"variant": "R361C", "effect of a mutation on the interaction": "with no effect"}]}, {"variants_of": "B1", "conditions": "with ccnd2_human CCND2, P30279", "values": [{"variant": "R361C", "effect of a mutation on the interaction": "with no effect"}]}, {"variants_of": "B1", "conditions": "with ccnd3_human CCND3, P30281", "values": [{"variant": "R361C", "effect of a mutation on the interaction": "with no effect"}]}, {"variants_of": "B1", "conditions": "with cd44_human CD44, P16070", "values": [{"variant": "R361C", "effect of a mutation on the interaction": "with no effect"}]}, {"variants_of": "B1", "conditions": "with cd79b_human CD79B", "values": [{"variant": "R361C", "effect of a mutation on the interaction": "with no effect"}]}, {"variants_of": "B1", "conditions": "with cdk6_human CDK6, Q00534", "values": [{"variant": "R361C", "effect of a mutation on the interaction": "with no effect"}]}, {"variants_of": "B1", "conditions": "with cdn2b_human CDKN2B", "values": [{"variant": "R361C", "effect of a mutation on the interaction": "with no effect"}]}, {"variants_of": "B1", "conditions": "with cdn2c_human CDKN2C", "values": [{"variant": "R361C", "effect of a mutation on the interaction": "with no effect"}]}, {"variants_of": "B1", "conditions": "with cebpa_human CEBPA", "values": [{"variant": "R361C", "effect of a mutation on the interaction": "with no effect"}]}, {"variants_of": "B1", "conditions": "with ch3l1_human CHI3L1, P36222", "values": [{"variant": "R361C", "effect of a mutation on the interaction": "with no effect"}]}, {"variants_of": "B1", "conditions": "with ctna1_human CTNNA1, P35221", "values": [{"variant": "R361C", "effect of a mutation on the interaction": "with no effect"}]}, {"variants_of": "B1", "conditions": "with ctnb1_human CTNNB1, P35222", "values": [{"variant": "R361C", "effect of a mutation on the interaction": "with no effect"}]}, {"variants_of": "B1", "conditions": "with cul3_human CUL3, Q13618", "values": [{"variant": "R361C", "effect of a mutation on the interaction": "with no effect"}]}, {"variants_of": "B1", "conditions": "with dicer_human DICER1, Q9UPY3", "values": [{"variant": "R361C", "effect of a mutation on the interaction": "with no effect"}]}, {"variants_of": "B1", "conditions": "with duox2_human DUOX2, Q9NRD8", "values": [{"variant": "R361C", "effect of a mutation on the interaction": "with no effect"}]}, {"variants_of": "B1", "conditions": "with e2f1_human E2F1, Q01094", "values": [{"variant": "R361C", "effect of a mutation on the interaction": "with no effect"}]}, {"variants_of": "B1", "conditions": "with e2f2_human E2F2, Q14209", "values": [{"variant": "R361C", "effect of a mutation on the interaction": "with no effect"}]}, {"variants_of": "B1", "conditions": "with e2f4_human E2F4, Q16254", "values": [{"variant": "R361C", "effect of a mutation on the interaction": "with no effect"}]}, {"variants_of": "B1", "conditions": "with e2f5_human E2F5, Q15329", "values": [{"variant": "R361C", "effect of a mutation on the interaction": "with no effect"}]}, {"variants_of": "B1", "conditions": "with if4e_human EIF4E", "values": [{"variant": "R361C", "effect of a mutation on the interaction": "with no effect"}]}, {"variants_of": "B1", "conditions": "with epha7_human EPHA7, Q15375", "values": [{"variant": "R361C", "effect of a mutation on the interaction": "with no effect"}]}, {"variants_of": "B1", "conditions": "with ephb1_human EPHB1, P54762", "values": [{"variant": "R361C", "effect of a mutation on the interaction": "with no effect"}]}, {"variants_of": "B1", "conditions": "with erbb4_human ERBB4, Q15303", "values": [{"variant": "R361C", "effect of a mutation on the interaction": "with no effect"}]}, {"variants_of": "B1", "conditions": "with esr1_human ESR1, P03372", "values": [{"variant": "R361C", "effect of a mutation on the interaction": "with no effect"}]}, {"variants_of": "B1", "conditions": "with etv1_human ETV1, P50549", "values": [{"variant": "R361C", "effect of a mutation on the interaction": "with no effect"}]}, {"variants_of": "B1", "conditions": "with fadd_human FADD", "values": [{"variant": "R361C", "effect of a mutation on the interaction": "with no effect"}]}, {"variants_of": "B1", "conditions": "with facd2_human FANCD2, Q9BXW9", "values": [{"variant": "R361C", "effect of a mutation on the interaction": "with no effect"}]}, {"variants_of": "B1", "conditions": "with fgf19_human FGF19, O95750", "values": [{"variant": "R361C", "effect of a mutation on the interaction": "with no effect"}]}, {"variants_of": "B1", "conditions": "with fgfr3_human FGFR3, P22607", "values": [{"variant": "R361C", "effect of a mutation on the interaction": "with no effect"}]}, {"variants_of": "B1", "conditions": "with fgfr4_human FGFR4, P22455", "values": [{"variant": "R361C", "effect of a mutation on the interaction": "with no effect"}]}, {"variants_of": "B1", "conditions": "with foxo1_human FOXO1, Q12778", "values": [{"variant": "R361C", "effect of a mutation on the interaction": "with no effect"}]}, {"variants_of": "B1", "conditions": "with foxo3_human FOXO3, O43524", "values": [{"variant": "R361C", "effect of a mutation on the interaction": "with no effect"}]}, {"variants_of": "B1", "conditions": "with gbra6_human GABRA6, Q16445", "values": [{"variant": "R361C", "effect of a mutation on the interaction": "with no effect"}]}, {"variants_of": "B1", "conditions": "with gata2_human GATA2, P23769", "values": [{"variant": "R361C", "effect of a mutation on the interaction": "with no effect"}]}, {"variants_of": "B1", "conditions": "with gata3_human GATA3, P23771", "values": [{"variant": "R361C", "effect of a mutation on the interaction": "with no effect"}]}, {"variants_of": "B1", "conditions": "with gna11_human GNA11, P29992", "values": [{"variant": "R361C", "effect of a mutation on the interaction": "with no effect"}]}, {"variants_of": "B1", "conditions": "with gnaq_human GNAQ", "values": [{"variant": "R361C", "effect of a mutation on the interaction": "with no effect"}]}]}
